Laboratory results: patent US20030175822A1
pIC50: −log10 of the molar value.

Columns and labels:
[1] = molecular target: mu3 opiate receptor (human) (UniProt P35372); assay: displacement of [3H]-dihydromorphine, membrane suspension of human lung non-small cell carcinoma
[2] = molecular target: mu3 opiate receptor (human) (UniProt P35372); assay: displacement of [3H]-dihydromorphine, membrane suspension of normal human lung
[3] = molecular target: mu3 opiate receptor (human) (UniProt P35372); assay: displacement of [3H]-dihydromorphine, membrane suspension of human granulocytes

Measured: pIC50

Chain of mu3 opiate receptor (human) (P35372 whole entry): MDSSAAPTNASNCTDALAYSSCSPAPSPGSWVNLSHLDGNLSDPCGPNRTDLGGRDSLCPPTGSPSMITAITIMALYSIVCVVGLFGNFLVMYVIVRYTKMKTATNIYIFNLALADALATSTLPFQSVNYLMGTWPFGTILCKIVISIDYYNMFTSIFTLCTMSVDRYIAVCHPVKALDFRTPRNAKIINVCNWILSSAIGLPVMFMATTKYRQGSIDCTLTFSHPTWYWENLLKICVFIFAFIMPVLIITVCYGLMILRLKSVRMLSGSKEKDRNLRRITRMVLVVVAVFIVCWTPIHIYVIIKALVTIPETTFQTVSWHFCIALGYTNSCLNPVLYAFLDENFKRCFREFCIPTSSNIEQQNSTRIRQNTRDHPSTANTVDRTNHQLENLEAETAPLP

(D-Ala^2, Leu^5)-enkephalin (from UniProt P01210 230-234) (peptide)
< 6.00: all assays above

(D-Pen^2, D-Pen^5)-enkephalin (peptide)
< 6.00: all assays above

Deltorphin (peptide)
< 6.00: all assays above

Dynorphin 1-17 (from UniProt P01213 207-223) (peptide)
< 6.00: all assays above
